# Reference: article PMC6244167
# Experiments:
# [1] = biological target: vasoinhibin of 79 residues (first 79 residues of human PRL) (human); test: non-reducing Western blot; conditioned media of transduced HEK293T/17 cells run without reduction and immunoblotted for PRL; disulfide-bonded dimers seen as bands of ~18 kDa and ~28 kDa
# [2] = biological target: vasoinhibin of 123 residues (first 123 residues of human PRL) (human); test: as above
stoichiometry N [1],stoichiometry N [2],Substance
2,,vasoinhibin of 79 residues (first 79 residues of human PRL) (domain or fragment)
,2,vasoinhibin of 123 residues (first 123 residues of human PRL) (domain or fragment)
